This data set is described as follows: soluble fraction after stress (log2 fold change); higher = more stays soluble; pooled small domains, quantitative proteomics. The note with it: stress: pH 4. The essentials: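 Pooled custom libraries of small protein domains were subjected to pH 4 and measured by high-throughput quantitative proteomics. The log2 fold change in soluble amount per domain is reported, higher values meaning more remained soluble. This is used as a measure of aggregation propensity.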
“HMLTLEDMTRINSIISPRIKKGQSLYHIAKNNGDELNISESTLRRLVMTGEMDAGIIDLPQAVK”: the “soluble fraction (log2)” value was -0.333. Next, “HMLTLTNREKQVLVYIAKGHQVAQIAYELKLSGHTINGYIKTIYQKLHISSRAEAALLAQQYGL”: -0.138; “HMLTRQNFHGIKLPTIHEYIDLLNSRVNANIDKTNNWQSSVSHLRTYLNSHNINAVSKESINNYIDERLN”: 0.0397. In the case of “HMLTRRQSEVLDFIRQFAESESMPPTLHEIAKGMGFSSDNAARDHVRALARKGAIDLVGGTSRGIRLR”, the “soluble fraction (log2)” value is -0.331.

For “HMLTRSASREELDQLLKRLRQNLKQKNFFWPPDKEKSLVLYLENLFSKFPLNSSDIRFLHGIIRTLSEK”, the “soluble fraction (log2)” value was -0.114.

“HMLVGKSVIMKTNESSSGMIAGKVNYWENIDGKIYLGINGKLYDIADVDTVLDNDYYDKLVN”: the “soluble fraction (log2)” value is -1.14.

Turning to “HMLVKKYTEEETGRQAELSKQLAELSKAYYNTGNSMVDDAVFDKLRDELSSLEKESGFAYDISPNVS”, the “soluble fraction (log2)” value is -0.276. For the sequence “HMLVNNSTIETVIDFANVKFGMELTKDQVSEQLRNLSFSQTLKLINSMKADDNDAFSEIIDL”, the “soluble fraction (log2)” value is -1.89.

On to “HMLVSFGDHLKRYIYERAGIEEPFGEVPQEIYRDIAVDSFRETYTPKSMNPTSTKLPALVNNWLIQ”, for which the “soluble fraction (log2)” value is -0.388.

For “HMLVSVSNYLGQNVDTVKSDLEALGLVVKLKEQQTDRESENGAVLEQSIEGGSKVSAGTPITLTYGK”, the “soluble fraction (log2)” value was -0.00697. Next, “HMLWTHIALPVRSLDDTMAFYDKYTTLENIHERQDPETNMRSVWLANPGDKTEQAARFVLVLI”: -0.126. “HMMTDAEKTFIFFSHLSSVEDHIAYGDKQFYMSLFWQHENKRELSSSQLYHLERLYNKYSMEEIEKKEEFS”: the “soluble fraction (log2)” value is -1.07.

As for “HMMTDEEFLRIAGYMKQRYGIDLGQKKVIMNGRLENHIKSGGWSSFHAFMNDLEKDSSGKLEKELVNLLTT”, the “soluble fraction (log2)” value is -0.367. Next, “HMMTLEESYKLLQVSHNASDIEITKAFKKLALLYHPDKNPSNIDWANKAMASINVAYNTIITHRFKEK”: -0.2; “HMNAAYDEELDFIFSLSEKGKWEEAEAEIGLLLQKHPEDATLQRIGEWVTTQKILLRQQAVEDRIRS”: -0.679; “HMNAEWMFDARKIPGLVMNYLRRIAVRAIEEKHYSPELVADLFGIDRTSIYDWLRKYRQQGEEALDTRKA”: 0.0142. “HMNAFEIYPNPASNLIRIDAEFTVAKIFSQTGNLIQTSTTKEIDVYNLANGIYFVKLDDSPSMVKFVIN”: the “soluble fraction (log2)” value is -1.09. Next, “HMNALTEAESKLLERMNKAGIHAEITTKKAAGILQRSENGARTVLNSLVKKGYLTVETNKAPYIYHLH”: 0.301; “HMNAMFEKVLAAVMGFIGVSAFAKNADGKSEMTSDQEKRLTDKWGSKFVEEFKNDLLEYEKNGNAAEDAV”: -0.332; “HMNAPKKPLSAYFLFSQEERLKVKAENPDYSITEVAKELGKRWATLNPDIKTVYEQRYQDARRIYETEMNT”: -0.102. In the case of “HMNAQLTTIPDLDGMNMRAATAMLSSLGLEVKRIGSGTVFAQFPKAGAAMRPGSMVTIRGKAKSL”, the “soluble fraction (log2)” value was found to be 0.22. Next, “HMNATLSSSYPTSVVTDGEIYKLTFGLNGKYNGQEQITVKPHGDSNIYDSGGLRAYQNTQSNNVVTLN”: -0.254.

As for “HMNATQLSNTQKQIRTQLLERLSNNPLTVKQLADRMFVPIDTILKEITALIQEQKIIEDKGGKLQIN”, the “soluble fraction (log2)” value was determined as 0.168.

Consider “HMNAVDLLSPQEQRIFELIGEGMSNRQIADVMYLAEKTVKNYVSNVLMKLGMERRTEAAALAARLDERQK”, for which the “soluble fraction (log2)” value was -0.468. In the case of “HMNAVITTQKAKQIALAHAGLSEADVNYVKAELENDDGVQVYDIEFYSKNIEYDYDINAVTGEIMSFDHDI”, the “soluble fraction (log2)” value is -0.623. Next, “HMNAVYPNPFVSEIYIGENNRSVEIYNLNGGLVYGMSQPSSRIDVSGLAAGSYILIKKDSSGHISSHKIMK”: -0.261.

Regarding “HMNDAARQTTDILQHVRSSGSISFRDLWRLFMPFMAYRDFDAAVKSLVAAGHIATTENERKELHLIAF”, the “soluble fraction (log2)” value was -1.42.

The record behind these values is the domain aggregation screens of Martell et al. (2025).
